Reference: PMC3521654, “The Nuclear Chaperone Nucleophosmin Escorts an Epstein-Barr Virus Nuclear Antigen to Establish Transcriptional Cascades for Latent Infection in Human B Cells” (PLoS Pathogens, 2012)

T1: GST-E2 300–360 (Epstein-Barr virus, UniProt P12978 300-360)
T1 construct: source: E. coli BL21 (DE3) pLys, purified (GST-sepharose)
T1 sequence: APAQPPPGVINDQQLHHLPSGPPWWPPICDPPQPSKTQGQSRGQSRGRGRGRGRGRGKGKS

T2: EBNA2 from the transfected expression vector (pSG5-EBNA2, E2) (Epstein-Barr virus, UniProt P12978 1-487)
T2 sequence (looked up): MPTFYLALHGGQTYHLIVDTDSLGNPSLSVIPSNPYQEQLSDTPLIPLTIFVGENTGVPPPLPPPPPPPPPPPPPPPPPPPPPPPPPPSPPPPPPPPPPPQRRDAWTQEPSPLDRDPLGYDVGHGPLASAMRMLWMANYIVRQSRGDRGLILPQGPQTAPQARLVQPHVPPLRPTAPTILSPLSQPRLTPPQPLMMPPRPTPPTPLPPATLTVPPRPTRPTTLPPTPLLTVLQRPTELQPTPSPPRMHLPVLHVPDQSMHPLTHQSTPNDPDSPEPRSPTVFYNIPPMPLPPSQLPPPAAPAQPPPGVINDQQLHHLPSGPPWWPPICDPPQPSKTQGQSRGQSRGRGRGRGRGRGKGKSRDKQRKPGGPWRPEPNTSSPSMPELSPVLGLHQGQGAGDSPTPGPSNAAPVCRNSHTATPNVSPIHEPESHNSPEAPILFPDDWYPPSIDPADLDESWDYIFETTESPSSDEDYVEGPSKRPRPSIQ


Columns and labels:
[1] = target: T1, GST-E2 300–360; assay: pull-down; conditions: one partner purified
[2] = target: T2, EBNA2 from the transfected expression …; assay: cell-based or functional assay

| Binder | percent of input pulled down [1] | co-activation of EBNA2-dependent LMP1-Luc reporter activity in BJAB cells [2] |
| --- | --- | --- |
| flag-tagged NPM1 truncated deletion mutant C2 (1–194) (domain or fragment, UniProt P06748 1-194, looked up, source: BJAB, transfected, in lysate) MEDSMDMDMSPLRPQNYLFGCELKADKDYHFKVDNDENEHQLSLRTVSLGAGAKDELHIVEAEAMNYEGSPIKVTLATLKMSVQPTVSLGGFEITPPVVLRLKCGSGPVHISGQHLVAVEEDAESEDEEEEDVKLLSISGKRSAPGGGSKVPQKKVKLAADEDDDDDDEEDDDEDDDDDDFDDEEAEEKAPVKK | ~2% | 2.5 fold |
| flag-tagged NPM1 truncated deletion mutant C3 (1–120) (domain or fragment, UniProt P06748 1-120, looked up, also called N-terminal oligomerization domain (OD); source: BJAB, transfected, in lysate) MEDSMDMDMSPLRPQNYLFGCELKADKDYHFKVDNDENEHQLSLRTVSLGAGAKDELHIVEAEAMNYEGSPIKVTLATLKMSVQPTVSLGGFEITPPVVLRLKCGSGPVHISGQHLVAVE | ~2% | 2.5 fold |
